From article PMC9890572 come the findings set out here.

Where “and” joins values, the source holds several entries; their conditions need not be identical. Equal entries are not always repeated.

The target of the experiment is smBiT–β-arrestin2 (UniProt P32121). Nature of the experiment: split reporter.
Sequence of UniProt P32121 (P32121 whole entry): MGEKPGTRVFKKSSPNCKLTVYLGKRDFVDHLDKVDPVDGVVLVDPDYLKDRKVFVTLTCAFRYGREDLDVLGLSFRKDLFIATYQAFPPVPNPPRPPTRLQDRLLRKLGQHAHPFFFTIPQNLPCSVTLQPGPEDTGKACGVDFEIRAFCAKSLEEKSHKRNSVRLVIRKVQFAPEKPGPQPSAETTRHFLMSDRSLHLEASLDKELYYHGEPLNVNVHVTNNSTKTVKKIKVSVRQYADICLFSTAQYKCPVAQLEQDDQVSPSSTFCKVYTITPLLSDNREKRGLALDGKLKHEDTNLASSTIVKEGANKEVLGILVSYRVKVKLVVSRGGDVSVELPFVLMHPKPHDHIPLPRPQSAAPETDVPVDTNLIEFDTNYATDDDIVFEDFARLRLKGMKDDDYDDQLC

As for “Gαi-LgBiT (from UniProt P63096 1-354) (natural protein)”, the other is -7.6 and -5.9.
